For one substance, Kd results are on record in paper doi:10.1101/2020.09.19.304535.

The assay concerns the target GmPUB13(252-630), purified protein (soybean (Glycine max)). The experiment in a line: ITC.

The substance “Avr1d, purified protein (ITC and gel filtration) (natural protein)” returned a dissociation constant Kd of 89 nM.
